Data from patent US9376706B2, “Protease detection” (Mologic Limited, priority 2007, dated 2016).
Square brackets hold non-standard residues; d marks the D form. Ends that are not written are not given here. ANA = 2-amino naphthoic acid; 4Abz = Nc1ccc(C(=O)O)cc1

Experiments:
Format in all cases: biochemical
[1] = molecular target: T1, Neutrophil Elastase (Homo sapiens, UniProt P08246); test: Plate assay of peptides as elastase substrates with DMAC visualisation; conditions: for result for elastase activity (well colour): 37° C., 30 minutes, pH 7.4; for suitability as elastase substrate: conclusion of Examples 3A and 3B
T1 sequence (P08246 30-267): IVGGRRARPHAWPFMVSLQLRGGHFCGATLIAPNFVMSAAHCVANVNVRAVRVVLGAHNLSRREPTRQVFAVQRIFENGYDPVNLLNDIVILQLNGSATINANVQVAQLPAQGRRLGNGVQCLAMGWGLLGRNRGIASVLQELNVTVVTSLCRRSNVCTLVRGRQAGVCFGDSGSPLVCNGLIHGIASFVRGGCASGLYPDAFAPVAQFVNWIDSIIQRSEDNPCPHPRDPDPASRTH
Procedure: Two peptides, AAPV-[pABA]-GGC (SEQ ID NO: 3) and AAPV-[ANA]-GGC (SEQ ID NO: 4), were synthesised, wherein pABA is para-amino benzoic acid and ANA is 2-amino naphthoic acid. Both peptides were tested for their suitability as a substrate for the Neutrophil Elastase enzyme. The electrospray mass spectrums of AAPV-[pABA]-GGC (SEQ ID NO: 3) and AAPV-[ANA]-GGC (SEQ ID NO: 4) are shown in FIGS. 10A and 10B respectively.
Varying concentrations of Elastase (5 μl of 18, 9, 6 and 3 units/ml dilutions) were added to 0.5 mg/ml peptide (5 μl) in separate plate wells. The mixtures were diluted with 20 μl of Buffer (50 mM phosphate, 5 mM EDTA; pH 7.4) and incubated at 37° C. for 30 minutes. 15 μl of working DMAC solution (0.3 mg/ml DMAC, 50 mM HCl) was added to each plate well and mixed thoroughly to visualize.

[2] = molecular target: T1, Neutrophil Elastase; test: Vertical flow column assay, peptide conjugated to frits, elastase, DMAC development; conditions: column with elastase, flow contact time approx. 30 seconds
Procedure: Another assay format was used to test for the activity of the enzyme Neutrophil Elastase in the presence of the two peptides, AAPV-[pABA]-GGC (SEQ ID NO: 3) and AAPV-[ANA]-GGC (SEQ ID NO: 4). The C-terminal cysteine group of the peptides was used as a means of conjugation to a solid surface. Sintered polyethylene frits functionalised with iodoacetyl groups were rinsed in 50 mM sodium phosphate, 5 mM EDTA, pH 7.4 for 10 minutes. The frits were then transferred to a solution of 0.5 mg/ml peptide (in PBS) for sensitisation for 30 minutes. The frits were then rinsed once more in phosphate EDTA buffer for 10 minutes. The frits were loaded into empty columns and 200 μl of elastase was added with an approximate flow contact time of 30 seconds. To develop the assay, 100 μl of working DMAC solution (0.3 mg/ml DMAC, 50 mM HCl) was passed through the column.

[3] = molecular target: T2, papain (Carica papaya, UniProt P00784); test: Booklet assay for detection of papain with DMAC visualisation
T2 sequence (P00784 134-345): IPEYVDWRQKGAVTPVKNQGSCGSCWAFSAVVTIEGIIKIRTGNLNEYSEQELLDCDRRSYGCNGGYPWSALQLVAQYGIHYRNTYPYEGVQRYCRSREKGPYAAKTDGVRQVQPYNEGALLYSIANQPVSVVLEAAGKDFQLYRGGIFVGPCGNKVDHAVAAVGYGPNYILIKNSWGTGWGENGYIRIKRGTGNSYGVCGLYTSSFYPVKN
Excerpt: The polypeptides of the present invention are, in some embodiments, incorporated into a product for detecting a protease enzyme in a sample which takes the form of a booklet. A suitable such booklet is disclosed in PCT application No. PCT/GB2007/000643 which is incorporated herein by reference. Referring to FIG. 3 a booklet 1 in accordance with this embodiment will now be described. The booklet comprises first and second sheets 2, 3 of planar substrate such as cardboard, connected by a hinge 4. In the centre of the first sheet there is provided a thin reaction film 25 on top of an absorbent pad 5. The reaction film 25 is impregnated with the chromogenic polypeptide and can be made from PVA. On the centre of the second sheet 3 there is provided an aperture 6 which is aligned with the reaction film 25 and the absorbent pad 5. The aperture 6 is covered by a visualisation film 7, such that the visualisation film 7 lies between the aperture 6 and the reaction film 25 when the first and second sheets 2, 3 are pressed against each other. The visualisation film 7 is impregnated with DMAC and HCl. Optionally, the reaction film 25 and the absorbent pad 5 are covered with a removable film (not shown) prior to use so that the reaction film 25 and the absorbent pad 5 are kept sealed from the environment. […]

Substance	result for elastase activity (well colour) ([1]; all wells with elastase)	suitability as elastase substrate [1]	result of vertical flow assay (column colour) [2]	result for elastase activity (well colour) ([1]; final elastase 0.5 units/ml)	result for elastase activity (well colour) ([1]; final elastase 3, 1.5 or 1 units/ml)	colour change of DMAC in booklet assay ([3]; papain sample, 5 min on first sheet, read ten minutes after folding onto DMAC sheet)	rate of colour change compared with BANA ([3]; papain, identical conditions, FIG. 7C)
AAPV-[ANA]-GGC (AAPV[ANA]GGC) [chromogenic peptide, ANA is 2-amino naphthoic acid]	elastase activity was not detected	poor elastase substrate	negative results	–	–	–	–
AAPV-[pABA]-GGC (AAPV[4Abz]GGC) [chromogenic peptide, pABA is para-amino benzoic acid]	–	significantly more suitable as a substrate for elastase	positive result	weak positive result	positive result	–	–
Val-Arg-[pABA]-Gly (VR[4Abz]G-OH; N-terminus assumed; SMILES CC(C)[C@H](N)C(=O)N[C@@H](CCCNC(=N)N)C(=O)Nc1ccc(C(=O)NCC(=O)O)cc1) [chromogenic polypeptide; pABA is para-amino benzoic acid]	–	–	–	–	–	changed from yellow to red	faster detectable colour change than BANA
